Results as given in US8394929B2, “Nogo receptor-mediated blockade of axonal growth” (Yale University, priority 2000, dated 2013).

Experiments:
[1] = test system: chick E12 dorsal root ganglion growth cones; assay: Growth cone collapse assay in chick dorsal root ganglion explants; format: cell-based; details: soluble form at 100 nM; chick E12 DRG
Method: (§1) For all experiments involving cell culture, the following methods were employed. The culture of embryonic chick E10 and E12 dorsal root ganglion explants and dissociated neurons utilized methods described for E7 dorsal root ganglion cultures (Takahashi et al., (1998) Nature Neurosci. 1, 487-493; Takahashi et al., (1999) Cell 99, 59-69; Goshima et al., (1995) Nature 376, 509-514; Jin & Strittmatter, (1997) J. Neurosci. […]). NGF-differentiated PC12 cells were cultured as described (Strittmatter et al., (1994) J. Neurosci. 14, 2327-2338). Embryonic spinal cord explants (rat E10 or chick E5) were cultured for 7-14 days in the presence of PDGF-AA to induce differentiation of some cells into mature oligodendrocytes (Vartanian et al., (1999) Proc. Natl. Acad. Sci. USA 96, 731-735). The procedure for growth cone collapse assays is identical to that for analysis of Sema3A-induced growth cone collapse (Takahashi et al., (1998) Nature Neurosci. 1, 487-493; Takahashi et al., (1999) Cell 99, 59-69; Goshima et al., (1995) Nature 376, 509-514; Jin & Strittmatter, (1997) J. Neurosci. 17, 6256-6263). The method for analysis of total neurite outgrowth has also been described (Goshima et al., (1995) Nature 376, 509-514; Jin & Strittmatter, (1997) J. Neurosci. 17, 6256-6263; Strittmatter et al., (1994) J. Neurosci. 14, 2327-2338). In outgrowth assays, proteins and peptides were added one hour after plating to minimize any effect on the total number of adherent cells. To test the effect of substrate-bound GST or GST-Nogo, the protein solutions were dried on poly-L-lysine coated glass, washed and then coated with laminin. For E12 cultures, the neuronal identity of cells was verified by staining with anti-neurofilament antibodies (2H3, Develomental Studies Hybridoma Bank) and neurites were traced by observation of rhodamine-phalloidin staining of F-actin in processes.
The expression of recombinant Nogo in HEK293T cells allows a rigorous test of whether this protein has axon outgrowth inhibiting effects. Washed membrane fractions from vector- or hNogo-A-Myc-transfected HEK293T cells were added to chick E12 dorsal root ganglion explant cultures. Growth cone morphology was assessed after a thirty minute incubation at 37° C. by fixation and rhodamine-phalloidin staining.
Briefly, for growth cone collapse, DRG explants were plated on plastic chamber slides precoated with 100 μg ml^−1 poly-L-lysine and 10 μg ml^−1 laminin. Cultures were grown 14-16 h prior to treatment.

[2] = test system: chick dorsal root ganglion neurons; assay: Neurite outgrowth assay in chick DRG neurons; format: cell-based
Method: as §1
For neurite outgrowth assays, plastic chamber slides were coated with 100 μg ml^−1 poly-L-lysine, washed, and dried. 3 μl drops of PBS containing GST-Nogo-66 were spotted and dried. Slides were then rinsed and coated with 10 μg ml fs24^−1 laminin before addition of dissociated E12 chick DRGs. AP-fusion proteins were added at the time of cell plating. Cultures were grown for 5-7 h after which neurite outgrowth was assessed.

3T3 fibroblasts = assay: 3T3 fibroblast spreading; format: cell-based, mouse
Method: (a) is a schematic diagram which summarizes features of the Nogo proteins utilized in this study. (b) is a photograph of NIH-3T3 fibroblasts cultured on surfaces coated with Amino-Nogo, GST-Nogo-66 or no protein and stained for filamentous actin (scale bar, 40 μm). (c) is a photograph of chick E12 dorsal root ganglions cultured on surfaces coated with Amino-Nogo, GST-Nogo-66 or no protein (substrate-bound) or with 100 nM Nogo protein (soluble) (scale bar, 40 μm). (d) is a photograph of a gel and an immunoblot where purified Amino-Nogo-Myc-His protein was subjected to SDS-PAGE and stained with Commassie Brilliant Blue (CBB) or immunoblotted with anti-Myc antibodies (Myc) (molecular weight markers of 200, 116, 97, 65 & 45 kDa are at left). (e) is a graph displaying experimental data where the percentage of 3T3 fibroblasts with an area greater than 1200 μm^2 (spread) was measured from experiments as in (b) on Nogo-coated surfaces (black) or with soluble 100 nM Nogo preparations (blue) (AM, Amino-Nogo; AM+Myc, Amino-Nogo preincubated with anti-Myc antibody; AM+Myc+Mo, AM+Myc preincubated with anti-mouse IgG antibody; Myc+Mo, anti-Myc antibody plus anti-murine IgG antibody). (f) is a graph displaying experimental data where the percentage of spread COS-7 cells was determined after culture on Nogo-coated surfaces or with soluble 100 nM Nogo preparations. (g) is a graph displaying experimental data where the effects of purified preparations of GST-Nogo-66 or Amino-Nogo on growth cone morphology was assessed in E12 dorsal root ganglion cultures at the indicated concentrations after thirty minutes. […] (h) is a graph displaying experimental data where the neurite outgrowth per cell in […] dorsal root ganglion cultures was quantitated from experiments as in (c) on Nogo-coated surfaces or with soluble 100 nM Nogo preparations. (i) is a graph displaying experimental data where the effects of Nogo preparations on neurite outgrowth in cerebellar granule neurons was measured.
Assays of Nogo-A function have included growth cone collapse, neurite outgrowth, and fibroblast spreading with substrate-bound and soluble protein preparations (Caroni & Schwab, (1988) J. Cell Biol. 106, 1281-1288; GrandPré et al., (2000) Nature 403, 439-444; Chen et al., (2000) Nature 403, 434-439; Prinjha et al., (2000) Nature 403, 483-484). […] Since NI250 preparations and full length Nogo-A are non-permissive for 3T3 spreading, it was necessary to consider whether different domains of Nogo might subserve this in vitro activity. To facilitate a comparison of different Nogo-A domains, the acidic amino terminal 1040 amino acid fragment (Amino-Nogo) was expressed as a Myc-his tagged protein in HEK293T cells (FIG. 1d). The Nogo protein is present in cytosolic fractions. […]

COS-7 cells = assay: COS-7 cell spreading; format: cell-based
Method: (§2) (a) is a schematic diagram which summarizes features of the Nogo proteins utilized in this study. (b) is a photograph of NIH-3T3 fibroblasts cultured on surfaces coated with Amino-Nogo, GST-Nogo-66 or no protein and stained for filamentous actin (scale bar, 40 μm). (c) is a photograph of chick E12 dorsal root ganglions cultured on surfaces coated with Amino-Nogo, GST-Nogo-66 or no protein (substrate-bound) or with 100 nM Nogo protein (soluble) (scale bar, 40 μm). […] (e) is a graph displaying experimental data where the percentage of 3T3 fibroblasts with an area greater than 1200 μm^2 (spread) was measured from experiments as in (b) on Nogo-coated surfaces (black) or with soluble 100 nM Nogo preparations (blue) (AM, Amino-Nogo; AM+Myc, Amino-Nogo preincubated with anti-Myc antibody; AM+Myc+Mo, AM+Myc preincubated with anti-mouse IgG antibody; Myc+Mo, anti-Myc antibody plus anti-murine IgG antibody). (f) is a graph displaying experimental data where the percentage of spread COS-7 cells was determined after culture on Nogo-coated surfaces or with soluble 100 nM Nogo preparations. (g) is a graph displaying experimental data where the effects of purified preparations of GST-Nogo-66 or Amino-Nogo on growth cone morphology was assessed in E12 dorsal root ganglion cultures at the indicated concentrations after thirty minutes. […]

[3] = test system: Mouse P4 cerebellar granule neurons; assay: Cerebellar granule neuron axon outgrowth; format: cell-based
Method: as §2

[4] = substrate-bound / coated surfaces
[5] = dimerized with anti-Myc antibody

B1: Amino-Nogo: acidic amino terminal 1040 amino acid fragment of Nogo-A expressed as a Myc-his tagged protein in HEK293T cells (protein, UniProt Q9NQC3 1-1040, looked up, fragment)
chain: MEDLDQSPLVSSSDSPPRPQPAFKYQFVREPEDEEEEEEEEEEDEDEDLEELEVLERKPAAGLSAAPVPTAPAAGAPLMDFGNDFVPPAPRGPLPAAPPVAPERQPSWDPSPVSSTVPAPSPLSAAAVSPSKLPEDDEPPARPPPPPPASVSPQAEPVWTPPAPAPAAPPSTPAAPKRRGSSGSVDETLFALPAASEPVIRSSAENMDLKEQPGNTISAGQEDFPSVLLETAASLPSLSPLSAASFKEHEYLGNLSTVLPTEGTLQENVSEASKEVSEKAKTLLIDRDLTEFSELEYSEMGSSFSVSPKAESAVIVANPREEIIVKNKDEEEKLVSNNILHNQQELPTALTKLVKEDEVVSSEKAKDSFNEKRVAVEAPMREEYADFKPFERVWEVKDSKEDSDMLAAGGKIESNLESKVDKKCFADSLEQTNHEKDSESSNDDTSFPSTPEGIKDRSGAYITCAPFNPAATESIATNIFPLLGDPTSENKTDEKKIEEKKAQIVTEKNTSTKTSNPFLVAAQDSETDYVTTDNLTKVTEEVVANMPEGLTPDLVQEACESELNEVTGTKIAYETKMDLVQTSEVMQESLYPAAQLCPSFEESEATPSPVLPDIVMEAPLNSAVPSAGASVIQPSSSPLEASSVNYESIKHEPENPPPYEEAMSVSLKKVSGIKEEIKEPENINAALQETEAPYISIACDLIKETKLSAEPAPDFSDYSEMAKVEQPVPDHSELVEDSSPDSEPVDLFSDDSIPDVPQKQDETVMLVKESLTETSFESMIEYENKEKLSALPPEGGKPYLESFKLSLDNTKDTLLPDEVSTLSKKEKIPLQMEELSTAVYSNDDLFISKEAQIRETETFSDSSPIEIIDEFPTLISSKTDSFSKLAREYTDLEVSHKSEIANAPDGAGSLPCTELPHDLSLKNIQPKVEEKISFSDDFSKNGSATSKVLLLPPDVSALATQAEIESIVKPKVLVKEAEKKLPSDTEKEDRSPSAIFSAELSKTSVVDLLYWRDIKKTGVVFGASLFLLLSLTVFSIVSVT
modifications: Myc-His tag
notes: acidic amino terminal 1040 amino acid fragment of Nogo-A expressed as a Myc-his tagged protein in HEK293T cells
B1 was tested, and the “growth cone morphology (in words)” value [1] was “does not significantly modulate”, the “dorsal root ganglion axon outgrowth (in words)” value ([2]; Amino-Nogo with anti-Myc antibody, further aggregated by anti-Mouse IgG antibody) was “significantly reduces” and the “neurite/axon outgrowth (in words)” value ([2]; soluble protein or peptide added to culture) was “does not significantly modulate”. For the same molecule, the “neurite/axon outgrowth (in words)” value [2, 4] was “axonal outgrowth is reduced to low levels”, the “3T3 spreading (in words)” value (3T3 fibroblasts; [5]) was “inhibits” and the “non-neuronal cell spreading (in words)” value (3T3 fibroblasts; soluble, 100 nM) was “does not significantly modulate”. The “3T3 fibroblast spreading (in words)” value (3T3 fibroblasts; [4]) was “fail to support 3T3 fibroblast spreading”, the “COS-7 spreading (in words)” value (COS-7 cells; [5]) was “inhibits” and the “non-neuronal cell spreading (in words)” value (COS-7 cells; soluble, 100 nM) was “does not significantly modulate”. The “cerebellar axon outgrowth (in words)” value [3, 5] was “tends to reduce cerebellar axon outgrowth” and the “cerebellar axon outgrowth (in words)” value ([3]; further aggregated by anti-Mouse IgG antibody) was “significantly reduces”.
